Data: patent US20210113690A1 (BERLIN CHEMIE, published 2021)

Experiments:
[1] = biological target: Contiguous 8mer peptides of LY75 protein spanning residues 216 to 1666 of the full length LY75 protein (peptide microarray); assay: peptide microarray, 1 ug/mL LY75_A1, scanned at 635 nm; cut off for non-specific binding 3000
[2] = biological target: T1, LY75 (DEC-205) on COLO205 cells (human, UniProt O60449 28-1722); assay: competitive FACS on COLO205 cells; competitor anti-LY75-mAb-MCC-DM1
T1 construct: also called Lymphocyte antigen 75
T1 sequence (O60449 28-1722 limits assumed): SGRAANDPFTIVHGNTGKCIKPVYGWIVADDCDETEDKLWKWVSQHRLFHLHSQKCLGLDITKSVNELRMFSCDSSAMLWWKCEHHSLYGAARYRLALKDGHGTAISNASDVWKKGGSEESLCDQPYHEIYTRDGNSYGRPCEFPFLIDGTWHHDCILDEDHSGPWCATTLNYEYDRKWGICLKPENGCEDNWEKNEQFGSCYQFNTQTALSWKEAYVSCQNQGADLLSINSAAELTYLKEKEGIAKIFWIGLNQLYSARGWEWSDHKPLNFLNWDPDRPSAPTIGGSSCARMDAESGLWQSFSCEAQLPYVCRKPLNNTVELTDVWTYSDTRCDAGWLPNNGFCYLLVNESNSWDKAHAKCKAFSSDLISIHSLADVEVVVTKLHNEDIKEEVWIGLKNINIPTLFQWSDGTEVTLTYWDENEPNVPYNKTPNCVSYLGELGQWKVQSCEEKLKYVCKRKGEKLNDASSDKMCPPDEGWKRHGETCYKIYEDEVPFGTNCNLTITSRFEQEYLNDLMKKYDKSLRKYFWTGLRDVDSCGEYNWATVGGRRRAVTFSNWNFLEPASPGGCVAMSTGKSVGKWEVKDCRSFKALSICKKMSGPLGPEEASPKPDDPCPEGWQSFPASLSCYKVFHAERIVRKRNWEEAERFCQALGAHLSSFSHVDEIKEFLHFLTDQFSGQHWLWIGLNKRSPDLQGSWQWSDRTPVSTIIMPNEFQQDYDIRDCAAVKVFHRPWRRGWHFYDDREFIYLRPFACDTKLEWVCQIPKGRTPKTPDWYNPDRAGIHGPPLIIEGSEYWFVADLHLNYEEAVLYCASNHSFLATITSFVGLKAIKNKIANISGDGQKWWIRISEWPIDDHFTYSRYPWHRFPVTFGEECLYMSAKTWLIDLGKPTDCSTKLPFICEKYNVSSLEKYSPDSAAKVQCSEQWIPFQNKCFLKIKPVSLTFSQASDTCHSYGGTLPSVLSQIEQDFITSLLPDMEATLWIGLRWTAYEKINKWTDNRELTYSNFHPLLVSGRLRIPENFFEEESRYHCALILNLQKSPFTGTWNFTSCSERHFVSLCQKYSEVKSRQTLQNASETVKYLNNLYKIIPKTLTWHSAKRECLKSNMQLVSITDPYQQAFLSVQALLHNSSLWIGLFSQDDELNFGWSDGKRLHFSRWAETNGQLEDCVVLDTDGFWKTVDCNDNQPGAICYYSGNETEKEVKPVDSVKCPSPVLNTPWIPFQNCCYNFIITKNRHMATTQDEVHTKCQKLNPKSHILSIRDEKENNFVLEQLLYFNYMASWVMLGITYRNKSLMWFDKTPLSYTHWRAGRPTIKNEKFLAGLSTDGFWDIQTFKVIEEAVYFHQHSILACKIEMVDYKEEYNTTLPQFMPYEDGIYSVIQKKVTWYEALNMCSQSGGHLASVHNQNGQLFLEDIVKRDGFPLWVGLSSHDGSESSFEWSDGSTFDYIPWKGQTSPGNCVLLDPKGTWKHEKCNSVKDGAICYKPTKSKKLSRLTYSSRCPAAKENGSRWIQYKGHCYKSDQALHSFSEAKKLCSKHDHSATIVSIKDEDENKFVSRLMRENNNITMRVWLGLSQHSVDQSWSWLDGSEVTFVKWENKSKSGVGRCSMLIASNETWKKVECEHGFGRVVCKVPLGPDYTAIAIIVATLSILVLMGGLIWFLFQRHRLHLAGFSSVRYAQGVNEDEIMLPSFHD
Procedure: Cells were washed and resuspended in FACS buffer (PBS+2% FBS), neutralized with growth media, and counted. Cells were plated at 50,000 cells per well in a V Bottom 96-well plate. Cells were washed once with FACS buffer (PBS (Fisher, catalog #SH30028-03)+2% FBS). […] Test wells that required single or multiple staining steps were left in FACS buffer as appropriate to ensure the final staining was completed simultaneously for all conditions tested. Two wells were left unstained in FACS buffer as controls.
After the incubation with blocking antibody, cells were washed twice in FACS buffer. […] The cells were washed as above and resuspended in FACS buffer plus 1 μg/ml mouse anti-maytansine antibody and incubated in ice for 45 minutes. The cells were washed as above and resuspended in FACS buffer containing 2 ug/ml goat anti-mouse kappa RPE. The cells were incubated on ice for 45 minutes then washed as above. The cells were resuspended in FACS buffer at 200 μl per well. Mean fluorescence intensity of each sample was determined using a Guava EasyCyte Plus HT Flow Cytometer (96 well plate formats) and the raw data was analyzed using the Guava Cytosoft.

B1: LY75_A1 monoclonal antibody (antibody, human IgG1, kappa, V domains shown)
VH: EVQLVESGGGLVKPGGSLRLSCAASGFTYSNAWMSWVRQAPGKGLEWVGRIKSKTDGGTTDYAAPVQGRFTISRDDSKNTLYLQMNSLKTEDTAVYYCTIFGVVSFDYWGQGTLVTVSS
VL: DVQMTQSPSSLSASVGDRVTITCRASQSISDYLSWYQQRPGKAPNLLIYAASNLKTGVPSRFSGSGSGTDFTLTISTLQPEDFATYYCQQSYRSPWTFGQGTKVEIKR
notes: also called LY75A1 antibody; antibody LY75_A1
average signal intensity of all spots (signal intensity (scale 1-65535)) [1]: 885 | maximum signal intensity (signal intensity (scale 1-65535)) [1]: 25000 | binding result [2]: binds
